According to patent US20160068835A1, “FLEXIBLE DISPLAY METHOD” (PEPTIDREAM INC., priority 2013, published 2016):
Blank lines part the entries; values can stand above or below the molecule they belong to. Where no end group is shown, it is not given here. [ ]: non-standard residue; d: D form. The star is where a group is joined. ClAB‑L‑Phe = N-[3-(2-chloroacetamido)benzoyl]-L-phenylalanine, O=C(CCl)Nc1cccc(C(=O)N[C@@H](Cc2ccccc2)C(=O)*)c1; puromycin = COc1ccc(C[C@H](N*)C(=O)N[C@H]2[C@@H](O)[C@H](n3cnc4c(N(C)C)ncnc43)O[C@@H]2CO)cc1; An21 Pu‑linker = not defined here

Key:
[1] = biological target: T1, human serum albumin (HSA) (Homo sapiens, UniProt P02768); assay: Bonding assay of chemically synthesized peptides by Bio-Layer Interferometry (BLI method); type: binding; settings: 50 mM Hepes-KOH pH 7.5, 300 mM NaCl, 0.05% Tween20, 0.001% DMSO, 30° C.; peptide 1-16 nM; FIG. 8
Procedure: (§1) Next, these peptides were chemically synthesized by Fmoc solid phase synthesis, and the bond to HSA was assessed using the Bio-Layer Interferometry method (BLI method). A bonding assay was performed under the condition of 50 mM Hepes-KOH pH 7.5, 300 mM NaCl, 0.05% Tween20 and 0.001% DMSO at 30° C. Each step of the assay consists of the bond reaction of peptide to HSA being 500 s, and the dissociation reaction being 500 s. The peptide solution was created by the following dilution series (p1: 16, 12, 8, 2, 1 nM, and p2: 16, 12, 8, 4 nM).

[2] = biological target: T1, human serum albumin (HSA); assay: Pull-down of peptides displayed as An21-type complexes with HSA-immobilized SA beads, recovered cDNA quantified by real-time PCR; type: binding; settings: An21-type display complexes; HSA-immobilized SA beads vs SA beads free of HSA; FIG. 5e
Procedure: Derivative peptides having reverse and shuffled sequences of the selected peptides (p1 and p2) and the original peptide were prepared as the An21-type complexes. […] Furthermore, since the bonding activity to HSA is lost when the amino acid sequence of the obtained cyclic peptide is reconfigured (reversed or shuffled), it could be seen that the bond of peptide to HSA is sequence-dependent (FIG. 5e).
mRNAs of p1 and p2 were synthesized from the colony PCR product. The reverse or shuffled sequences of the mRNAs of the p1 and p2 peptides were prepared as follows. The DNA template was prepared using T7SD8M2.F44 as the forward primer, and SD8No38revG5S4.R69, SD8No38ranG5S4.R69, SD8No41revG5S4.R75 or SD8No41ranG5S4.R75 as the reverse primer. An elongation PCR and transcription were performed by a method similar to the method used in preparation of T7-mRNA. mRNA was purified by phenol/chloroform extraction and 2-propanole precipitation, and dissolved in ultrapure water.
Translation (2 μL), reverse transcription (4 μL), and the quenching reaction (5.25 μL) were performed by the above method.
2 μL of the obtained solution was mixed with HSA immobilized SA beads (0.3 pmol HSA) or SA-beads. After incubation at room temperature for 10 min., the beads were washed three times with 10 μL of HBST. […] The recovered cDNA was quantified with real-time PCR.

[3] = biological target: T2, human serum albumin (human, UniProt P02768 25-609); assay: Bio-Layer Interferometry (BLI), synthetic peptide at 16, 12, 8, 4 nM, 30 C
T2 construct: also called HSA
Procedure: as §1

[4] = biological target: T2, human serum albumin; assay: pull-down of the An21-type display complex on HSA-immobilized SA beads, recovered cDNA quantified by real-time PCR
Procedure: Derivative peptides having reverse and shuffled sequences of the selected peptides (p1 and p2) and the original peptide were prepared as the An21-type complexes. The obtained complexes were subjected to pull-down using the HSA-immobilized SA beads and the SA beads free of HSA, and the recovered cDNA was quantified, which provided the result that p1 and p2 actually bond with HSA (FIG. 5e). Furthermore, since the bonding activity to HSA is lost when the amino acid sequence of the obtained cyclic peptide is reconfigured (reversed or shuffled), it could be seen that the bond of peptide to HSA is sequence-dependent (FIG. 5e).

[5] = biological target: T2, human serum albumin; assay: Bio-Layer Interferometry (BLI), synthetic peptide at 16, 12, 8, 2, 1 nM, 30 C
Procedure: as §1

Molecule: XTYNERLFWC ([ClAB‑L‑Phe]TYNERLFWC; thioether (positions not given here); not fully specified (bridges)) [p1, X is ClAB-L-Phe, cyclized by thioether bond with Cys]
bond to HSA (BLI binding curve) [1]: bond to HSA
bond with HSA (recovered cDNA after pull-down) [2]: actually bond with HSA

B1: p2: XSQWDPWAIFWC (X is ClAB-L-Phe), chemically synthesized cyclic peptide (peptide)
peptide: [ClAB‑L‑Phe]SQWDPWAIFWC
modifications: thioether (positions not given here); not fully specified (bridges)
notes: Made by Fmoc solid phase synthesis for the BLI assay; also called compound p2
binding result [3]: binds

B3: p1: XTYNERLFWC (X is ClAB-L-Phe), chemically synthesized cyclic peptide (peptide)
peptide: [ClAB‑L‑Phe]TYNERLFWC
modifications: thioether (positions not given here); not fully specified (bridges)
notes: Made by Fmoc solid phase synthesis for the BLI assay; also called compound p1
binding result [5]: binds

B5: Shuffled p1, displayed as An21-type complex (peptide)
peptide: [ClAB‑L‑Phe]RFETLNWYCGGGGGS-{puromycin-An21 Pu‑linker}
modifications: thioether (positions not given here); not fully specified (bridges); reading uncertain; also: C-terminal Pu-linker annealed to its mRNA/cDNA (display complex)
notes: also called No38ran
binding result [4]: no binding

Results, then the molecule that gave them:

bond to HSA (BLI binding curve) [1]: bond to HSA
bond with HSA (recovered cDNA after pull-down) [2]: actually bond with HSA
Molecule: XSQWDPWAIFWC ([ClAB‑L‑Phe]SQWDPWAIFWC; thioether (positions not given here); not fully specified (bridges)) [p2, X is ClAB-L-Phe, cyclized by thioether bond with Cys]

binding result [4]: no binding
B2: Reversed p1, displayed as An21-type complex (peptide)
peptide: [ClAB‑L‑Phe]WFLRENYTCGGGGGS-{puromycin-An21 Pu‑linker}
modifications: thioether (positions not given here); not fully specified (bridges); reading uncertain; also: Pu-linker annealed to its mRNA/cDNA (display complex)
notes: also called No38rev

binding result [4]: no binding
B4: Shuffled p2, displayed as An21-type complex (peptide)
peptide: [ClAB‑L‑Phe]DQSPWWWIAFCGGGGGS
modifications: thioether (positions not given here); not fully specified (C-terminus, bridges); also: C-terminal Pu-linker annealed to its mRNA/cDNA (display complex)
notes: also called No41ran

binding result [4]: no binding
B6: Reversed p2, displayed as An21-type complex (peptide)
peptide: [ClAB‑L‑Phe]WFIAWPDWQSCGGGGGS
modifications: thioether (positions not given here); not fully specified (C-terminus, bridges); also: Pu-linker annealed to its mRNA/cDNA (display complex)
notes: also called No41rev
